Experiments:
[1] = system: NCI-H82 tumor model; assay: Biodistribution of radio-labelled DARPin conjugates in NCI-H82 tumor model; details: for T:K ratio: R2G2 mice; for Blood % ID/g / Kidneys % ID/g / Tumors % ID/g: mouse, in vivo, iv, 0.01 mg/kg
Protocol: NCI-H82 tumor model. R2G2 mice were purchased from Envigo. All studies were conducted under the approval of the institutional IACUC committee. Animals were maintained under specific-pathogen-free (SPF) conditions with daily cycles of light and darkness (12 h/12 h), in line with ethical guidelines. No manipulations were performed during the first 5 days after arrival, to allow the animals to acclimatize to the new environment. All mice were monitored daily for assessment of physical condition and general well-being. NCI-H82 cells were purchased from ATCC (Catalog No. HTB-175). Solid xenografts were established by subcutaneous (SQ) injection of NCI-H82 cells in RPMI media mixed 1:1 with Corning® Matrigel® basement membrane matrix (GFR; Corning, Cat No 354230.). Cells were quantified using Countess cell counter. Each mouse was injected SQ with 5×10^6 NCI-H82 cells in 100 μL RPMI/GFR-Matrigel into the right flank of each mouse. Tumor volumes were estimated three times per week through calipering, according to the formula: volume=0.5×length×width^2 and grown until they reached 200-300 mm^3. Tumor-associated antigen level expressed in tumors, tumor vascularization profile and DLL3 soluble form in mouse serum was tested.
Biodistribution study. […] Radio-labeled (Pb-212) DARPin conjugates were then injected at 0.01 mg/kg (10 μCi DARPin conjugates) into the tail vein of R2G2 mice (females) xenografted subcutaneously (at age of about 7 weeks) with NCI-H82 cells (5 million cells, growth factor reduced Matrigel) and bearing tumors (5-10 mm in diameter). […] Biodistribution was monitored at 4 h and 24h post-injection. Mice were euthanized by CO2 inhalation and cervical dislocation. Blood, spleen, kidneys, liver and tumor were extracted, weighed and the radioactivity was determined with a γ-counter counter (such as Wizard^22470, Perkin Elmer). The data were expressed as the % injected dose/gram (% ID/g).
Radio-labeled (Pb-212) DARPin conjugates were then injected at 0.01 mg/kg (10 μCi DARPin conjugates) into the tail vein of R2G2 mice (females) xenografted subcutaneously (at age of about 7 weeks) with NCI-H82 cells (5 million cells, growth factor reduced Matrigel) and bearing tumors (5-10 mm in diameter). Biodistribution was monitored at 4 h and 24h post-injection. Mice were euthanized by CO2 inhalation and cervical dislocation. Kidneys and tumor were extracted, weighed and the radioactivity was determined with a γ-counter counter (such as Wizard^22470, Perkin Elmer). The data were expressed as the % injected dose/gram (% ID/g) and the tumor to kidney (T:K) ratio was determined.
Radio-labelled (Pb-212) DARPin conjugates were then injected at 0.01 mg/kg (10 μCi DARPin conjugates) (i) into the tail vein of R2G2 mice (females) xenografted subcutaneously (at age of about 7 weeks) with NCI-H82 cells (5 million cells, growth factor reduced Matrigel) and bearing tumors (5-10 mm in diameter), and (ii) into the tail vein of athymic nude mice (females) xenografted subcutaneously (at age of about 7 weeks) with hDLL3-MC38 cells (5 million cells, growth factor reduced Matrigel) and bearing tumors (5-10 mm in diameter). Biodistribution was monitored at 4 h and 24h post-injection. Mice were euthanized by CO2 inhalation and cervical dislocation. Blood, bladder, small intestine, colon, spleen, kidneys, liver, lung, heart, tail and tumor were extracted, weighed and the radioactivity was determined with a γ-counter (such as Wizard^22470, Perkin Elmer). The data were expressed as the % injected dose/gram (% ID/g).

[2] = target: T1, human DLL3 expressed on HEK293T-huDLL3 cells (Homo sapiens, UniProt Q9NYJ7); assay: Cell binding titration on HEK293T-hDLL3 cells; assay type: cell-based; details: absence of human serum albumin, read-out: Cell binding EC50, w/o HSA
T1 construct: expressed in transfected cells; host or cells: HEK293T-hDLL3
T1 sequence (Q9NYJ7 27-618): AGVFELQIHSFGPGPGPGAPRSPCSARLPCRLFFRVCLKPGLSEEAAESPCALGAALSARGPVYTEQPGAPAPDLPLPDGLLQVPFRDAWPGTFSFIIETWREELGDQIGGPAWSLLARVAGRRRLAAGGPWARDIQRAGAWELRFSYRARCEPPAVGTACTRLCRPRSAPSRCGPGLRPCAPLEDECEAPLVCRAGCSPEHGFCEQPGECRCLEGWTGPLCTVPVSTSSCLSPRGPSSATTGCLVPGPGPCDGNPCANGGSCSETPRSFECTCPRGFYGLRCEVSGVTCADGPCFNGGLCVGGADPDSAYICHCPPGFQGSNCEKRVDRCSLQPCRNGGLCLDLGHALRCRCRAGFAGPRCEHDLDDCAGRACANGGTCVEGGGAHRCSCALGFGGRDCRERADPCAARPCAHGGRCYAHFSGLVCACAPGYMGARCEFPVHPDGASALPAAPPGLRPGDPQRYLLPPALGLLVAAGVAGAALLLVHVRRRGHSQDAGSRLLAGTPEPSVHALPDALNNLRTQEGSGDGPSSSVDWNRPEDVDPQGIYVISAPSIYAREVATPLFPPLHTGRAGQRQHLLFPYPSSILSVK
Protocol: Cell binding titration assays were performed for selected His-tagged single domain (1 D) and two domain (2D) designed ankyrin repeat proteins to determine binding to human DLL3 expressed on HEK293T-huDLL3 cells in absence and presence of human serum albumin. Controls included Rova antibody as a positive control and a non-binding DARPin comprising SEQ ID NO: 21 as a negative control. HEK293T-hDLL3 cells are HEK293T cells that were stably transfected to express human DLL3 on their surface.
In brief, 1×10^5 cells/well were resuspended in 100 μl DARPin dilution (500 nM, 1:5 serial diluted) and incubated for 1 h at 4° C. Cells were washed twice with PBS and resuspended in 100 μl anti-DARPin antibody (rabbit anti-DARPin 1.4.8) and LIVE/DEAD fixable cell stain (1:1000, Thermo Fisher #L34957). This step was performed in absence and presence of […] Human Serum Albumin (CSL Behring #150570). After incubation and washing, cells were incubated with detection antibody for 30 minutes (Goat anti-Human IgG (H+L), AF647, Thermo Fisher #21445). Cells were fixed (Paraformaldehyde Solution, LucernaChem) and acquired at Attune N×T (Thermo Life Technologies). Raw fcs files were exported and analyzed using FlowJo software. MFI values of live AF647-positive cells were exported from FlowJo and plotted using GraphPad Prism software. None of the tested ankyrin repeat proteins show binding to the HEK293T wildtype cells.

Molecule	T:K ratio ([1]; Pb-212 DOTAM conjugate 0.01 mg/kg (10 μCi) i.v., s.c. NCI-H82, 24 h, Example 9)	T:K ratio ([1]; Pb-212 conjugate, NCI-H82 cells xenografted intravenously instead of subcutaneously, 24 h (data not shown))	EC50 [2] [nM]	Blood % ID/g ([1]; 4 h) [% ID/g]	Kidneys % ID/g ([1]; 4 h) [% ID/g]	Tumors % ID/g ([1]; 4 h) [% ID/g]	Blood % ID/g ([1]; 24 h) [% ID/g]	Kidneys % ID/g ([1]; 24 h) [% ID/g]	Tumors % ID/g ([1]; 24 h) [% ID/g]
MAM279 conjugate: SEQ ID NO: 15 conjugated to DOTAM-maleimide, labelled with Pb-212 (natural lead in PK studies) (conjugate, DOTAM-maleimide, Pb-212 label; Ankyrin repeat protein with tag (GS-MAM279-tag)) GSDLGKKLLEAARAGQDDEVRELLKAGADVNAKDYFSHTPLHLAARNGHLKIVEVLLKAGADVNAKDFAGKTPLHLAADAGHLEIVEVLLKAGADVNAQDIFGKTPADIAADAGHEDIAEVLQKAAGSPTPTPTTPTPTPTTPTPTPTGSDLGKKLLAAAAQGQDDEVRELLKAGANVNAKDLFGYTPLHLAAWRGHLEIVEVLLKAGADVNAKDAAGETPLHLAAWFGHLEIVEVLLKAGADVNAQDLQGKTPADLAAKEGHEDIAEVLQKAAGSGSC	above 1	above 1							
MAM160: Two domain (2D) ankyrin repeat protein: serum albumin-specific domain (SEQ ID NO: 7), PT linker, DLL3-specific domain MAM120 (protein, Ankyrin repeat protein (MAM160)) DLGKKLLEAARAGQDDEVRELLKAGADVNAKDYFSHTPLHLAARNGHLKIVEVLLKAGADVNAKDFAGKTPLHLAADAGHLEIVEVLLKAGADVNAQDIFGKTPADIAADAGHEDIAEVLQKAAGSPTPTPTTPTPTPTTPTPTPTGSDLGTKLLSAAADGQDDEVRELLQAGADVNAKDLFGYTPLHLAAWRGHLEIVEVLLEAGADVNAKDAAGLTPLHLAAWFGHLEIVEVLLEAGADVNAQDVQGVTPADLAAKEGHEDIAEVLQQAA			18.9	13.8	12.4	7.1	3.2	18.7	13.3
MAM282: Two domain (2D) ankyrin repeat protein: serum albumin-specific domain (SEQ ID NO: 7), PT linker, DLL3-specific domain (SEQ ID NO: 2) (protein, Ankyrin repeat protein (MAM282)) DLGKKLLEAARAGQDDEVRELLKAGADVNAKDYFSHTPLHLAARNGHLKIVEVLLKAGADVNAKDFAGKTPLHLAADAGHLEIVEVLLKAGADVNAQDIFGKTPADIAADAGHEDIAEVLQKAAGSPTPTPTTPTPTPTTPTPTPTGSDLGKKLLAAAREGQDDEVRELLKAGADVNAKDIWGQTPLHIAAWFGHLEIVEVLLKAGADVNAKDQTGHTPLHLAAKFGHLEIVEVLLKAGADVNAQDLLGRTPADLAAEEGHEDIAEVLQKAA			21.2						
Rova: Rova antibody, DLL3-binding benchmark antibody used as positive control and comparison (antibody, chains of the INN, looked up, V domains shown) VH: QVQLVQSGAEVKKPGASVKVSCKASGYTFTNYGMNWVRQAPGQGLEWMGWINTYTGEPTYADDFKGRVTMTTDTSTSTAYMELRSLRSDDTAVYYCARIGDSSPSDYWGQGTLVTVSS VL: EIVMTQSPATLSVSPGERATLSCKASQSVSNDVVWYQQKPGQAPRLLIYYASNRYTGIPARFSGSGSGTEFTLTISSLQSEDFAVYYCQQDYTSPWTFGQGTKLEIK			0.1						
MAM279: Two domain (2D) ankyrin repeat protein: serum albumin-specific domain (SEQ ID NO: 7), PT linker, DLL3-specific domain of MAM093 (protein, Ankyrin repeat protein (MAM279)) DLGKKLLEAARAGQDDEVRELLKAGADVNAKDYFSHTPLHLAARNGHLKIVEVLLKAGADVNAKDFAGKTPLHLAADAGHLEIVEVLLKAGADVNAQDIFGKTPADIAADAGHEDIAEVLQKAAGSPTPTPTTPTPTPTTPTPTPTGSDLGKKLLAAAAQGQDDEVRELLKAGANVNAKDLFGYTPLHLAAWRGHLEIVEVLLKAGADVNAKDAAGETPLHLAAWFGHLEIVEVLLKAGADVNAQDLQGKTPADLAAKEGHEDIAEVLQKAA			14.9	23	11	8	13	25	29
MAM283: Two domain (2D) ankyrin repeat protein: serum albumin-specific domain (SEQ ID NO: 7), PT linker, DLL3-specific domain (SEQ ID NO: 3) (protein, Ankyrin repeat protein (MAM283)) DLGKKLLEAARAGQDDEVRELLKAGADVNAKDYFSHTPLHLAARNGHLKIVEVLLKAGADVNAKDFAGKTPLHLAADAGHLEIVEVLLKAGADVNAQDIFGKTPADIAADAGHEDIAEVLQKAAGSPTPTPTTPTPTPTTPTPTPTGSDLGKKLLAAAADGQDDEVRELLQAGADVNAKDLFGYTPLHLAAWRGHLEIVEVLLEAGADVNAKDAAGETPLHLAAWFGHLEIVEVLLEAGADVNAQDVQGKTPADLAAKEGHEDIAEVLQQAA			22.1						

From US20250332297A1, “DLL3-SPECIFIC BINDING CONSTRUCTS AND THEIR USE IN RADIOTHERAPY” (MOLECULAR PARTNERS AG, priority 2024, published 2025)
